Assay results: patent publication US20230181770A1, “COMPOSITIONS AND METHODS OF TARGETING AND IMAGING AGED MICROGLIA WITH Aß PEPTIDE AMINO ACID RESIDUES FOR V-DOMAIN BINDING OF RAGE” (Neurosn, Inc., priority 2018, published 2023)

Target: T1, RAGE receptors (Mus musculus, UniProt Q62151)
T1 construct: from tissue; host or cells: mouse brain (APPSWE Model 2789 and C57BL/6 mice), after tail vein injection
Assay: Brain autoradiography (AR) binding localization after tail vein injection in AD and normal mice
Assay type: in vivo
Details: 50 μCi per tail vein at day 0, sacrificed day 3
Source text: Four APPSWE Model 2789 mice (AD) and 4 C57BL/6 mice (normal) receive an injection of 50 μCi of Sn-IBD-Aβ(16-23) per tail vein at day 0.
Additionally, four APPSWE Model 2789 mice (AD) and 4 C57BL/6 mice (normal) receive an injection of 50 μCi of Sn-IBD-K-Aβ(23-17) per tail vein at day 0.
All the animals are sacrificed on day 3 post Sn-Aβ-AA injection and brains preserved and autoradiography (AR) binding localization in AD-specific areas mapped.
Findings—Histopathological comparison and autoradiography dosimetry are measured in each mouse brain in comparative anatomic regions.

T1 sequence (Q62151 23-402): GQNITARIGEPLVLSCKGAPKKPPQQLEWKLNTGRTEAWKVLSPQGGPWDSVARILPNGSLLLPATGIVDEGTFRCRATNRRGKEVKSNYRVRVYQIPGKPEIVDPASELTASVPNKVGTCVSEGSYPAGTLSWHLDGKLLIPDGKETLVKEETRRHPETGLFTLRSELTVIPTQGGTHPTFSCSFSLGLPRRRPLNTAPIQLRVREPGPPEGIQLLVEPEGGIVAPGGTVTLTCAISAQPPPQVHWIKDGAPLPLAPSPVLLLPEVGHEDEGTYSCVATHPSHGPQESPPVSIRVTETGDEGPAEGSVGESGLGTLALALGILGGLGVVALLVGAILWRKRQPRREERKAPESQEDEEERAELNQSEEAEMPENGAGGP

- AR distribution of RAGE binding in brain (RAGE expressing APPSWE Model 2789 mice (AD)): increase in RAGE binding
- AR distribution of RAGE binding in cortical and hippocampal areas (normal C57BL/6 mice): minimal
Substance: Sn-IBD-Aβ(16-23) (KLVFFAED; Amyloid-beta protein 42 Sn-IBD conjugate; UniProt P05067 687-694, looked up, fragment)
